Common to all, as to test: Kinase profiling (radiometric filter-binding)
Holding throughout (assay type): biochemical

One data set has as its target T1, EIF2AK3 (Homo sapiens, UniProt Q9NZJ5).
T1 sequence (Q9NZJ5 30-1116): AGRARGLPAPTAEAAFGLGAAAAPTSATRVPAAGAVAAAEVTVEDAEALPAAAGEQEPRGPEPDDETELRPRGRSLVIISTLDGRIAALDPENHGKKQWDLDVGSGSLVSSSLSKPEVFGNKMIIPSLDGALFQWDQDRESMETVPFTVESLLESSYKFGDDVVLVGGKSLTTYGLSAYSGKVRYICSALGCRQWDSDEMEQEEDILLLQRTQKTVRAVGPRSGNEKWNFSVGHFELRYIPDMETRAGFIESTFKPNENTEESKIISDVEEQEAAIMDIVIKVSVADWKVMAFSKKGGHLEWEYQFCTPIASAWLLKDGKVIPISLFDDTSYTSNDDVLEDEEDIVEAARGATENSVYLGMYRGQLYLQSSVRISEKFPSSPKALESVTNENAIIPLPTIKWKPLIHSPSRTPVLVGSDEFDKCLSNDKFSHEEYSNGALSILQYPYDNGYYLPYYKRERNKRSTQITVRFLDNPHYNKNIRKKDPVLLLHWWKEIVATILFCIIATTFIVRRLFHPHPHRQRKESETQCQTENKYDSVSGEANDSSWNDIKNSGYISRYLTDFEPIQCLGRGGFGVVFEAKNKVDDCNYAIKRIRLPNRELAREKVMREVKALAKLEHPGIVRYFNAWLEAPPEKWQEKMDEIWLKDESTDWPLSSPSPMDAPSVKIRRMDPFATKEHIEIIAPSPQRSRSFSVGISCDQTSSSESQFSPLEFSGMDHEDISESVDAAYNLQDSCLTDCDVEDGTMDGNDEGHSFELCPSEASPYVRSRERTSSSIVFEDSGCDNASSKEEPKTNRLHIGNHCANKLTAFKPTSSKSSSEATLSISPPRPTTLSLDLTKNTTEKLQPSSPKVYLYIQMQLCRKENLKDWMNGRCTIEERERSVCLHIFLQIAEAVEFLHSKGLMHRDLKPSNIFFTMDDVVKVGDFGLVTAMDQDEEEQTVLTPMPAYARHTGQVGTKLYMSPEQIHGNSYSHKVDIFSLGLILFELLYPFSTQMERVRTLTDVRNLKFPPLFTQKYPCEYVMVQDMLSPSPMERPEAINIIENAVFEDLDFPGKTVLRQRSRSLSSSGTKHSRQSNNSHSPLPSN
The note with it: EIF2AK3, 1 µM inhibitor; read-out: Residual activity, %. The gist of the method: (§1)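 Percent activity retained relative to the no-inhibitor reaction is given. Assays used human enzymes, radiolabel filter capture, ATP concentrations not exceeding the respective KM, and a final inhibitor level of 1 µM.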

A further data set addresses CDK9-Cyclin T1 (Homo sapiens, UniProt P50750). The note with it: CDK9-Cyclin T1, 1 µM inhibitor; read-out: Residual activity, %. The method, boiled down:
as §1

Another data set has as its target JNK2 (Homo sapiens, UniProt P45984). To be noted: JNK2, 1 µM inhibitor; read-out: Residual activity, %. The method, boiled down:
as §1

The target in a further data set is STK33 (Homo sapiens, UniProt Q9BYT3). The note with it: STK33, 1 µM inhibitor; read-out: Residual activity, %. The gist of the method:
as §1

In another data set the target is JNK1 (Homo sapiens, UniProt P45983). To be noted: JNK1, 1 µM inhibitor; read-out: Residual activity, %. The method, boiled down:
as §1

For another data set, the target named is T2, EPH-B1 (Homo sapiens, UniProt P54762).
T2 sequence (P54762 18-984): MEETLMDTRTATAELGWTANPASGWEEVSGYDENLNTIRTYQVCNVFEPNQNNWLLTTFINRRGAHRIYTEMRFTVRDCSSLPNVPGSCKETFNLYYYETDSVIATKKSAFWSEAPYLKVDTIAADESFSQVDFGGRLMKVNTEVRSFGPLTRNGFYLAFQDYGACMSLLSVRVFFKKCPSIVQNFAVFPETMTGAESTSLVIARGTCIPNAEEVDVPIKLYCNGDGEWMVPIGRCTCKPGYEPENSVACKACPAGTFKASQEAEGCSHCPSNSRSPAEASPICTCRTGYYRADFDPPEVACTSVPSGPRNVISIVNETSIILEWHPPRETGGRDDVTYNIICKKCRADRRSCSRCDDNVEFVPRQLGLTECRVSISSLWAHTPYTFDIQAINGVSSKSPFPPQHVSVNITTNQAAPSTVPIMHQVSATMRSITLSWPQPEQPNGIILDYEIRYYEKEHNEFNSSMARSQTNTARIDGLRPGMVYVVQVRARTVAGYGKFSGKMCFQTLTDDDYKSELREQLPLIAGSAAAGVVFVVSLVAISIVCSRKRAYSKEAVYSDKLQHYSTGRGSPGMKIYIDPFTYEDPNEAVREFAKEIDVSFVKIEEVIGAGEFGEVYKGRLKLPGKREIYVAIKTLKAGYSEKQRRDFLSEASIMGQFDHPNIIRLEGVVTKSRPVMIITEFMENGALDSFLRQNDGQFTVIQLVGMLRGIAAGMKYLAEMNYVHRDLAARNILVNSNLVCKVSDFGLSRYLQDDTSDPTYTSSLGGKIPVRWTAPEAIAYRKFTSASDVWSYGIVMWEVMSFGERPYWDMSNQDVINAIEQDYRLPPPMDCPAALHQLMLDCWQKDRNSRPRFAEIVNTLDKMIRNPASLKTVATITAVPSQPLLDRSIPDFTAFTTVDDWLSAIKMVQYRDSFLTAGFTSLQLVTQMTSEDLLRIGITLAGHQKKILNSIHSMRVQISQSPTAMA
To be noted: EPH-B1, 1 µM inhibitor; read-out: Residual activity, %. The method, boiled down:
as §1

Square brackets hold non-standard residues; d marks the D form. Peptide text beside a SMILES is read from it. * marks the point of attachment. X3 = O=C(CCCCCNCc1nc2c(sc3cc(Br)cnc32)c(=O)[nH]1)*

Sequence of JNK2 (P45984 whole entry): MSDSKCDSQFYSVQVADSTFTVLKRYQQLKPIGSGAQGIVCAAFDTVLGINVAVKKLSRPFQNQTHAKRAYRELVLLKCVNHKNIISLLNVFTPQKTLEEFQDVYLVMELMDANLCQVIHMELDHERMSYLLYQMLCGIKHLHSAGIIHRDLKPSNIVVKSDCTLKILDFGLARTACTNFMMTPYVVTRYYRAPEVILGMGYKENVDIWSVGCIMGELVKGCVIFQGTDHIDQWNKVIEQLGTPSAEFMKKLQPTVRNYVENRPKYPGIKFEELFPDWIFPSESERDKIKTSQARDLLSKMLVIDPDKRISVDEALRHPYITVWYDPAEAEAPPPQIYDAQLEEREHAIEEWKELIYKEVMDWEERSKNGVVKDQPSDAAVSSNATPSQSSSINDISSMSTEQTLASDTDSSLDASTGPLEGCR
Sequence of STK33 (Q9BYT3 whole entry): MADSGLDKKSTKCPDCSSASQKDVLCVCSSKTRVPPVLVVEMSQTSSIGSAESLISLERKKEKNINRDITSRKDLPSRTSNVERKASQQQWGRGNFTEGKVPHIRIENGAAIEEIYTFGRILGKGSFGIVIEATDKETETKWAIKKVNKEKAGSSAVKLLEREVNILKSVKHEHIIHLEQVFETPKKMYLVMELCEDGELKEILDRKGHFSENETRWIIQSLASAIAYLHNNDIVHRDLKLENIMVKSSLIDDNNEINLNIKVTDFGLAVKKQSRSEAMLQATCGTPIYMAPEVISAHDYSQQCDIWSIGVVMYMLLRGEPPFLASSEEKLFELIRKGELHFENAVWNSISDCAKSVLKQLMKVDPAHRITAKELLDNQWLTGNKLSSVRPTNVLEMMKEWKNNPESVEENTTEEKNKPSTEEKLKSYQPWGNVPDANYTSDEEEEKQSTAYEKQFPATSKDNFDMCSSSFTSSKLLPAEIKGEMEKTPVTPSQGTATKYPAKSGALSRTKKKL
Sequence of CDK9-Cyclin T1 (P50750 whole entry): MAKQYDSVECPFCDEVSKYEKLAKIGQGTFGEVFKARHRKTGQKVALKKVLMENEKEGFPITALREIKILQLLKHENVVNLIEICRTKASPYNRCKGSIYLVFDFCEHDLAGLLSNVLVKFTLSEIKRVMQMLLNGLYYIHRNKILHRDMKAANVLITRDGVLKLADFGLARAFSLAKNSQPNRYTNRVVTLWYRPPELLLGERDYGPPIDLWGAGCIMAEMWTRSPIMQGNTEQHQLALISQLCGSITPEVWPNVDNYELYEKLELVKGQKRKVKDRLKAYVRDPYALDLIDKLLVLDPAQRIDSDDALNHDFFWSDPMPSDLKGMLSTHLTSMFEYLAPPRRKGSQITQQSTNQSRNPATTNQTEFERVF
Sequence of CDK9-Cyclin T1 (O60563 whole entry partner): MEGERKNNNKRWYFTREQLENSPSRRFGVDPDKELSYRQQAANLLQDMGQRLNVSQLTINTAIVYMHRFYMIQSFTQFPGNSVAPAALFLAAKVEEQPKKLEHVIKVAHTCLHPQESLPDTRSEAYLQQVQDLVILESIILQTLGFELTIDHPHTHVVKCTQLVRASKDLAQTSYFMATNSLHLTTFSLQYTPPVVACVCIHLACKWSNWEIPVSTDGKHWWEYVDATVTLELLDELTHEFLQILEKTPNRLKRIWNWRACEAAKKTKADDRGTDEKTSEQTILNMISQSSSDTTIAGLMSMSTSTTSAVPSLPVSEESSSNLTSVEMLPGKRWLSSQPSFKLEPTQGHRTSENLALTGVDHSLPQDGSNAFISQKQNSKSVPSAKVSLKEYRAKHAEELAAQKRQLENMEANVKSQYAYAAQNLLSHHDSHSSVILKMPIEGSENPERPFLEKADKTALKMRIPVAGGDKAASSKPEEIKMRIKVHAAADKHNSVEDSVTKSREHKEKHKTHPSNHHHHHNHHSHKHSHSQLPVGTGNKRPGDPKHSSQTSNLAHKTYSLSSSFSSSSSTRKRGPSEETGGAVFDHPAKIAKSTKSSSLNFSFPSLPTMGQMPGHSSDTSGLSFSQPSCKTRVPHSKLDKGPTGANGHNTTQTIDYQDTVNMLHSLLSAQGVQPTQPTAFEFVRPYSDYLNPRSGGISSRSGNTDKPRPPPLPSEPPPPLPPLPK
Sequence of JNK1 (P45983 whole entry): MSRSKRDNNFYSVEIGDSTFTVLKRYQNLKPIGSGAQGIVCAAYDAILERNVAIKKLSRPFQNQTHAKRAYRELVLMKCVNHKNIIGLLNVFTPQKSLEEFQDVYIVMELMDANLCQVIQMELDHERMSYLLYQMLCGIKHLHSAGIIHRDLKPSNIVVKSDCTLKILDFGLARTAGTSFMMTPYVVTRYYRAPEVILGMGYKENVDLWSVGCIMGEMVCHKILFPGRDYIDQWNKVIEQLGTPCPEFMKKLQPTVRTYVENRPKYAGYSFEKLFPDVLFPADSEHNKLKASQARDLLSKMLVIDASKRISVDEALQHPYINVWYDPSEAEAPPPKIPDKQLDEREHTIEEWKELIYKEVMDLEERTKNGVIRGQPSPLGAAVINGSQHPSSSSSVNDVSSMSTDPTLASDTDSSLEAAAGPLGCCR

Regarding `N=C(N)NCCC[C@@H](NC(=O)CCCCCNC(=O)Cn1cnc2c(I)c(I)c(I)c(I)c21)C(=O)N[C@H](CCCNC(=N)N)C(=O)N[C@H](CCCNC(=N)N)C(=O)N[C@H](CCCNC(=N)N)C(=O)N[C@H](CCCNC(=N)N)C(=O)N[C@H](CCCNC(=N)N)C(=O)N[C@H](CCCCN)C(N)=O` [ARC-3125, TIBI-CH2-C(=O)-Ahx-(D-Arg)6-D-Lys-NH2], the remaining activity at 1 µM in the data set with EIF2AK3 is 11 ± 11%; with CDK9-Cyclin T1, 55 ± 1%; in the data set with JNK2, 123 ± 7%; with STK33 it was 84 ± 20%; with JNK1 it was 82 ± 13%; in the data set with EPH-B1, 106 ± 12%.

With `N=C(N)NCCC[C@@H](NC(=O)CCCCCNCc1nc2c(sc3cc(Br)cnc32)c(=O)[nH]1)C(=O)N[C@H](CCCNC(=N)N)C(=O)N[C@H](CCCNC(=N)N)C(=O)N[C@H](CCCNC(=N)N)C(=O)N[C@H](CCCNC(=N)N)C(=O)N[C@H](CCCNC(=N)N)C(=O)N[C@H](CCCCN)C(N)=O` [ARC-3126, BPTP-Ahx-(D-Arg)6-D-Lys-NH2] (X3-[dR][dR][dR][dR][dR][dR][dK]-NH2), the remaining activity at 1 µM was found to be 60 ± 6% with EIF2AK3; 104 ± 3% with CDK9-Cyclin T1; 38 ± 13% in the data set with JNK2; 107 ± 6% with STK33; 116 ± 4% with JNK1; 96 ± 6% in the data set with EPH-B1.

On to `N=C(N)NCCC[C@@H](NC(=O)CNC(=O)[C@@H](CCCNC(=N)N)NC(=O)[C@@H](CCCNC(=N)N)NC(=O)CCCCCCCNCc1nc2c(sc3cc(Br)cnc32)c(=O)[nH]1)C(=O)N[C@H](CCCCN)C(N)=O` [Compound 1, BPTP-Aoc-(D-Arg)2-Gly-D-Arg-D-Lys-NH2], for which the remaining activity at 1 µM with EIF2AK3 was determined as 94 ± 7%; in the data set with CDK9-Cyclin T1 it was 110 ± 10%; in the data set with JNK2, 107 ± 1%; in the data set with STK33, 110 ± 2%; with JNK1 it was 100 ± 13%; in the data set with EPH-B1 it was 103 ± 9%.

For `N=C(N)NCCC[C@@H](NC(=O)CNC(=O)[C@@H](CCCNC(=N)N)NC(=O)[C@@H](CCCNC(=N)N)NC(=O)CCCCCCCNCc1nc2c(sc3ccc(Br)cc32)c(=O)[nH]1)C(=O)N[C@H](CCCCN)C(N)=O` [Compound 2, BBTP-Aoc-(D-Arg)2-Gly-D-Arg-D-Lys-NH2], the remaining activity at 1 µM in the data set with EIF2AK3 came out at 98 ± 5%; with CDK9-Cyclin T1, 101 ± 20%; with JNK2 it was 91 ± 7%; in the data set with STK33, 106 ± 3%; in the data set with JNK1 it was 112 ± 2%; with EPH-B1 it was 99 ± 15%.

Turning to `N=C(N)NCCC[C@@H](NC(=O)CNC(=O)[C@@H](CCCNC(=N)N)NC(=O)[C@@H](CCCNC(=N)N)NC(=O)Cn1cc(CNCc2nc3c(sc4ccc(Br)cc43)c(=O)[nH]2)nn1)C(=O)N[C@H](CCCCN)C(N)=O` [Compound 3, BBTP-Amt-(D-Arg)2-Gly-D-Arg-D-Lys-NH2], the remaining activity at 1 µM is 113 ± 13% in the data set with EIF2AK3; 90 ± 18% with CDK9-Cyclin T1; 129 ± 21% with JNK2; 91% in the data set with STK33; 115 ± 13% in the data set with JNK1; 106 ± 11% in the data set with EPH-B1.

For the origin of these results see paper PMC8307404, “Crystal Structure-Guided Design of Bisubstrate Inhibitors and Photoluminescent Probes for Protein Kinases of the PIM Family” (Molecules, 2021).
